Experimental data reported in patent US12492252.

Target: human GPC3 on cells (HepG2 cells expressing full length human GPC3; GPC3-transfected HEK293T cells) (human) (UniProt P51654)
Experiment: cell-based or functional assay

Substance: GC33 CAR (GC33 Benchmark)
- IFN-gamma cytokine release (pg/mL), E:T 1:1: 8180 pg/mL
- IFN-gamma cytokine release (pg/mL), E:T 1:3: 2760 pg/mL
- IFN-gamma cytokine release (pg/mL), E:T 3:1: 15000 pg/mL
- Specific lysis (%) of HepG2 cells, E:T 1:1: 9.78%
- Specific lysis (%) of HepG2 cells, E:T 1:3: 4.57%
- Specific lysis (%) of HepG2 cells, E:T 3:1: 17.2%
